The record followed here is publication PMC4674680, “An in cellulo-derived structure of PAK4 in complex with its inhibitor Inka1” (Nature Communications, 2015).

For test [1], the target named is T1, PAK4cat (Homo sapiens, UniProt O96013).
T1 construct: PAK1 (1–545) and PAK4 (286–591), respectively; 6His (N); made in house; host or cells: Escherichia coli BL21-CodonPlus(DE3)
The test is described as follows: In-vitro kinase assay, PAK4cat (phosphorylation of GST-Raf13). Conditions: in vitro. In kind it is biochemical. On the procedure: Purified PAK1 or PAK4 (50 nM in 25–50 μl) were incubated with 10 μM GST-Raf1S338 peptide in 10 μM ATP (2 μCi of γ32P ATP) of kinase buffer (25 mM HEPES, pH 7.3, 0.1% Triton X-100, 50 mM KCl, 10 mM MgCl2, 1 mM dithiothreitol) at 30 °C for 20 min. Samples were analysed by SDS–PAGE or adsorption of the GST substrate mix onto polyvinylidene difluoride membranes, followed by extensive washing to remove free γ32P-ATP. The synthetic peptides of 95% purity, as determined by HPLC and mass spectrometric analyses (GenScript), were soluble in aqueous PBS. Stock solutions (10 mM) were quantified via calculated extinction coefficients and absorbance measurements at 280 nm and stored at −80 °C. The diluted peptides were incubated at the indicated concentrations with the kinase on ice (10 min) before addition of γ32P ATP and subsequent incubation at 30 °C. The synthetic peptide array (Jerini Biotools) was phosphorylated in situ as described previously.

Test [2] has as its system PAK4. Nature of the test: Co-immunoprecipitation of HA-Inka1 by FLAG-tagged PAK4 constructs. Format: binding, human. The following applies: Fig. 1b; mammalian cells; PAK4* = RR48/49AE. On the procedure:
Transfection of cell culture and immunoprecipitation
Monkey COS-7 cells, human HEK293 and U2OS were grown in DMEM medium with 4,500 mg l^−1 glucose supplemented with 10% bovine calf serum (Hyclone). HeLa cells were grown in Eagle's MEM medium supplemented with L-glutamine, sodium bicarbonate, sodium pyruvate and 10% bovine calf serum. Transient transfections were performed with Lipofectamine 2000 according to recommended protocols. Typically, a total of 5 μg plasmid DNA was used per 60-mm dish; lysates were harvested 18 h later in ice-cold lysis buffer (0.5 ml; 25 mM HEPES, pH 7.3, 100 mM KCl, 5 mM MgCl2, 20 mM β-glycerophosphate, 5% glycerol, 0.5% Triton X-100, 5 mM dithiothreitol, 0.5 mM phenylmethyl sulfonyl fluoride, 1 mM Na3VO4 and 1 × protease inhibitor cocktail (Roche)). To test co-immunoprecipitation of proteins, the lysates were clarified by centrifugation (14,000g) and the clarified lysates were incubated while rolling (2 h) with 20 μl M2 anti-Flag Sepharose (Sigma-Aldrich, A2220). Rabbit anti-Flag (Sigma-Aldrich, F7425) or horseradish peroxidase-coupled anti-HA (Santa Cruz Biotechnology, sc-7392 HRP, 1 μg ml^−1) were used for western blot analysis.

T1 sequence (O96013 286-591): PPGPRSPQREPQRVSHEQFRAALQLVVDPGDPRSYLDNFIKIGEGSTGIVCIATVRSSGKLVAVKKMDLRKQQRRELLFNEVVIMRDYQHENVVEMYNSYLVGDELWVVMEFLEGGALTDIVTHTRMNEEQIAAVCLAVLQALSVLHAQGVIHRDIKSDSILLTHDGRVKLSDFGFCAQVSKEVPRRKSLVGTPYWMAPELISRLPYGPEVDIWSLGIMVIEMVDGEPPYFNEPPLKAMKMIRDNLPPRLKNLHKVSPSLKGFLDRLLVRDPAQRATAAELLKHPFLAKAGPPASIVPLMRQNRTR

B1: Inka1: endogenous PAK4 inhibitor, 30-kDa neural crest enriched protein (protein, UniProt Q96EL1 1-287, looked up)
PAK4-inhibitor INKA1: MDMHSARLDSFLSQLRWELLCGRDTGSPSMPGPLQPTSQTGPDVQPSHQLRASGALEEDSVCCVEEEEEEEEEAVVTEDRDAALGGPREHALDWDSGFSEVSGSTWREEELPVSQRPAPSAQPLRRQCLSVSGLPMPSRAPVASVPPVHHPRPKSTPDACLEHWQGLEAEDWTAALLNRGRSRQPLVLGDNCFADLVHNWMELPETGSEGGDGGGHRARARPPQFLLGLSEQLRRRLARARRTAMAGKRLSCPPRPEPELPADVSRFAALMSCRSRQPIICNDVSYL
Turning to B1, in test [1], the “Affinity relative to AID or iBox-C, in words” value was “much higher affinity than the corresponding AID”. The “Binding to activated PAK4* (mutated AID) versus wild-type PAK4, in words” value in test [2] is reported as “significantly better than wild-type PAK4”.
